We go through 114 variants from the RNAGym collection of RNA variant scans (doi:10.7554/elife.80360).

First the molecules themselves.
B1: Hammerhead Ribozyme (parent)
chain: ACCGGAUGUGCUUUCCGGUCUGAUGAGUCCGUGAGGACGAAACAG

In the data set the parent is B1. As to the kind of experiment: self-cleavage, relative activity (ratio to wild type); higher = more cleavage; co-transcriptional.
Regarding ACCGGAUGUGCUUUCCGGUCUGAUGAGUGCGUGAGGACGAAACAG, the self-cleavage was found to be 0.766.

For the variant ACCGGAUGUGCUUUCCGGUCUGAUGAGUUCGUGAGGACGAAACAG, the self-cleavage came out at 0.947. Turning to ACCGGAUGUGCUUUCCGGUCUGAUGAGUGCUUGAGGACGAAACAG, the self-cleavage stood at 0.777. The value for ACCGGAUGUGCUUUCCGGUCUGAUGAGUGCCUGAGGACGAAACAG was 0.74; that for ACCGGAUGUGCUUUCCGGUCUGAUGAGUGCAUGAGGACGAAACAG was 1.01; that for ACCGGAUGUGCUUUCCGGUCUGAUGAGUACGUGAGGACGAAAGAG was 0.348. The value for ACCGGAUGUGCUUUCCGGUCUGAUGAGUACGUGAGGACGAAAAAG was 0.345; that for ACCGGAUGUGCUUUCCGGUCUGAUGAGUACGUGAGGACGAAAUAG was 0.396; that for ACCGGAUGUGCUUUCCGGUCUGAUGAGUAAGUGAGGACGAAACAG was 0.442. For ACCGGAUGUGCUUUCCGGUCUGAUGAGUAUGUGAGGACGAAACAG, the self-cleavage was 0.41. The value for ACCGGAUGUGCUUUCCGGUCUGAUGAGUAGGUGAGGACGAAACAG was 0.372. Consider ACCGGAUGUGCUUUCCGGUCUGAUGAGUUCGUGAGGACGAAACGG, for which the self-cleavage was 1.27. The value for ACCGGAUGUGCUUUCCGGUCUGAUGAGUUCGUGAGGACGAAACCG was 0.44. As to ACCGGAUGUGCUUUCCGGUCUGAUGAGUUCGUGAGGACGAAACUG, the self-cleavage came out at 0.542.

Take ACCGGAUGUGCUUUCCGGUCUGAUGAGUACGAGAGGACGAAACAG: the self-cleavage was 0.643. The value for ACCGGAUGUGCUUUCCGGUCUGAUGAGUACGGGAGGACGAAACAG was 0.504; that for ACCGGAUGUGCUUUCCGGUCUGAUGAGUACGCGAGGACGAAACAG was 0.866. The value for ACCGGAUGUGCUUUCCGGUCUGAUGAGUUCGUGAGGACGAAAAAG was 0.337. In the case of ACCGGAUGUGCUUUCCGGUCUGAUGAGUUCGUGAGGACGAAAGAG, the self-cleavage is 0.319. To ACCGGAUGUGCUUUCCGGUCUGAUGAGUUCGUGAGGACGAAAUAG belongs 0.47. Consider ACCGGAUGUGCUUUCCGGUCUGAUGAGUGCGUGAGGACGAAACGG, for which the self-cleavage stood at 0.82.

As to ACCGGAUGUGCUUUCCGGUCUGAUGAGUGCGUGAGGACGAAACCG, the self-cleavage came out at 0.35. To ACCGGAUGUGCUUUCCGGUCUGAUGAGUGCGUGAGGACGAAACUG belongs 0.398; to ACCGGAUGUGCUUUCCGGUCUGAUGAGUUCGUGAGGACGAACCAG, 0.326. To ACCGGAUGUGCUUUCCGGUCUGAUGAGUUCGUGAGGACGAAUCAG belongs 0.367. To ACCGGAUGUGCUUUCCGGUCUGAUGAGUUCGUGAGGACGAAGCAG belongs 0.283. On to ACCGGAUGUGCUUUCCGGUCUGAUGAGUUCGUGAGGACGGAACAG, for which the self-cleavage is 0.389.

As for ACCGGAUGUGCUUUCCGGUCUGAUGAGUUCGUGAGGACGCAACAG, the self-cleavage turned out to be 0.51. Take ACCGGAUGUGCUUUCCGGUCUGAUGAGUUCGUGAGGACGUAACAG: the self-cleavage was 0.28.

Consider ACCGGAUGUGCUUUCCGGUCUGAUGAGUGCGUGAGGAGGAAACAG, for which the self-cleavage was 0.424. ACCGGAUGUGCUUUCCGGUCUGAUGAGUGCGUGAGGAUGAAACAG: the self-cleavage came out at 0.703. To ACCGGAUGUGCUUUCCGGUCUGAUGAGUGCGUGAGGAAGAAACAG belongs 0.458; to ACCGGAUGUGCUUUCCGGUCUGAUGAGUGCGUGAGGACGAAACAU, 0.458. To ACCGGAUGUGCUUUCCGGUCUGAUGAGUGCGUGAGGACGAAACAC belongs 0.371.

On to ACCGGAUGUGCUUUCCGGUCUGAUGAGUGCGUGAGGACGAAACAA, for which the self-cleavage stood at 0.359. To ACCGGAUGUGCUUUCCGGUCUGAUGAGUGCGUGAGGACAAAACAG belongs 0.324. In the case of ACCGGAUGUGCUUUCCGGUCUGAUGAGUGCGUGAGGACCAAACAG, the self-cleavage is 0.317. Turning to ACCGGAUGUGCUUUCCGGUCUGAUGAGUGCGUGAGGACUAAACAG, the self-cleavage worked out at 0.334. With ACCGGAUGUGCUUUCCGGUCUGAUGAGUGCGUGAGUACGAAACAG, the self-cleavage was determined as 1.01.

As to ACCGGAUGUGCUUUCCGGUCUGAUGAGUGCGUGAGCACGAAACAG, the self-cleavage came to 0.799. The value for ACCGGAUGUGCUUUCCGGUCUGAUGAGUGCGUGAGAACGAAACAG was 0.66.

With ACCGGAUGUGCUUUCCGGUCUGAUGAGUACGUGAGGAAGAAACAG, the self-cleavage is 0.426.

With ACCGGAUGUGCUUUCCGGUCUGAUGAGUACGUGAGGAGGAAACAG, the self-cleavage came to 0.281. As for ACCGGAUGUGCUUUCCGGUCUGAUGAGUACGUGAGGAUGAAACAG, the self-cleavage is 0.652. With ACCGGAUGUGCUUUCCGGUCUGAUGAGUUCGUGAGGAAGAAACAG, the self-cleavage was determined as 0.485. Consider ACCGGAUGUGCUUUCCGGUCUGAUGAGUUCGUGAGGAGGAAACAG, for which the self-cleavage was found to be 0.559. Consider ACCGGAUGUGCUUUCCGGUCUGAUGAGUUCGUGAGGAUGAAACAG, for which the self-cleavage came out at 1.04. For the variant ACCGGAUGUGCUUUCCGGUCUGAUGAGUACCUGAGGACGAAACAG, the self-cleavage turned out to be 0.683. In the case of ACCGGAUGUGCUUUCCGGUCUGAUGAGUACAUGAGGACGAAACAG, the self-cleavage is 0.606.

Consider ACCGGAUGUGCUUUCCGGUCUGAUGAGUACUUGAGGACGAAACAG, for which the self-cleavage stood at 0.611. The value for ACCGGAUGUGCUUUCCGGUCUGAUGAGUGCGUGAGGACGAAGCAG was 0.269; that for ACCGGAUGUGCUUUCCGGUCUGAUGAGUGCGUGAGGACGAAUCAG was 0.394. To ACCGGAUGUGCUUUCCGGUCUGAUGAGUGCGUGAGGACGAACCAG belongs 0.407; to ACCGGAUGUGCUUUCCGGUCUGAUGAGUUCGUGAGGACGAGACAG, 0.275. On to ACCGGAUGUGCUUUCCGGUCUGAUGAGUUCGUGAGGACGACACAG, for which the self-cleavage was 0.319. Turning to ACCGGAUGUGCUUUCCGGUCUGAUGAGUUCGUGAGGACGAUACAG, the self-cleavage came to 0.337. As to ACCGGAUGUGCUUUCCGGUCUGAUGAGUACGUGAGGACCAAACAG, the self-cleavage amounted to 0.326. To ACCGGAUGUGCUUUCCGGUCUGAUGAGUACGUGAGGACUAAACAG belongs 0.387. Regarding ACCGGAUGUGCUUUCCGGUCUGAUGAGUACGUGAGGACAAAACAG, the self-cleavage came to 0.356. Turning to ACCGGAUGUGCUUUCCGGUCUGAUGAGUUCGUGAGGUCGAAACAG, the self-cleavage came out at 0.371. In the case of ACCGGAUGUGCUUUCCGGUCUGAUGAGUUCGUGAGGCCGAAACAG, the self-cleavage amounted to 0.93. The value for ACCGGAUGUGCUUUCCGGUCUGAUGAGUUCGUGAGGGCGAAACAG was 0.751; that for ACCGGAUGUGCUUUCCGGUCUGAUGAGUGCGUGAGGACGAGACAG was 0.338; that for ACCGGAUGUGCUUUCCGGUCUGAUGAGUGCGUGAGGACGAUACAG was 0.29.

For the variant ACCGGAUGUGCUUUCCGGUCUGAUGAGUGCGUGAGGACGACACAG, the self-cleavage was determined as 0.269.

As to ACCGGAUGUGCUUUCCGGUCUGAUGAGUGCGUGAGGACGAAAUAG, the self-cleavage is 0.328. With ACCGGAUGUGCUUUCCGGUCUGAUGAGUGCGUGAGGACGAAAAAG, the self-cleavage was 0.376. To ACCGGAUGUGCUUUCCGGUCUGAUGAGUGCGUGAGGACGAAAGAG belongs 0.275; to ACCGGAUGUGCUUUCCGGUCUGAUGAGUGCGUGAUGACGAAACAG, 0.665. To ACCGGAUGUGCUUUCCGGUCUGAUGAGUGCGUGACGACGAAACAG belongs 0.602; to ACCGGAUGUGCUUUCCGGUCUGAUGAGUGCGUGAAGACGAAACAG, 0.637. To ACCGGAUGUGCUUUCCGGUCUGAUGAGUGCGUGCGGACGAAACAG belongs 0.56.

ACCGGAUGUGCUUUCCGGUCUGAUGAGUGCGUGUGGACGAAACAG: the self-cleavage was 0.748. To ACCGGAUGUGCUUUCCGGUCUGAUGAGUGCGUGGGGACGAAACAG belongs 0.446. In the case of ACCGGAUGUGCUUUCCGGUCUGAUGAGUGCGUGAGGCCGAAACAG, the self-cleavage worked out at 0.759. To ACCGGAUGUGCUUUCCGGUCUGAUGAGUGCGUGAGGUCGAAACAG belongs 0.587; to ACCGGAUGUGCUUUCCGGUCUGAUGAGUGCGUGAGGGCGAAACAG, 0.414. Regarding ACCGGAUGUGCUUUCCGGUCUGAUGAGUACGUGAGGACGAAACAA, the self-cleavage came to 0.372.

On to ACCGGAUGUGCUUUCCGGUCUGAUGAGUACGUGAGGACGAAACAU, for which the self-cleavage turned out to be 0.35. The value for ACCGGAUGUGCUUUCCGGUCUGAUGAGUACGUGAGGACGAAACAC was 0.388; that for ACCGGAUGUGCUUUCCGGUCUGAUGAGUUGGUGAGGACGAAACAG was 0.546.

With ACCGGAUGUGCUUUCCGGUCUGAUGAGUUAGUGAGGACGAAACAG, the self-cleavage is 0.609. To ACCGGAUGUGCUUUCCGGUCUGAUGAGUUUGUGAGGACGAAACAG belongs 0.656; to ACCGGAUGUGCUUUCCGGUCUGAUGAGUGCGUGAGGACGGAACAG, 0.238; to ACCGGAUGUGCUUUCCGGUCUGAUGAGUGCGUGAGGACGUAACAG, 0.325.

With ACCGGAUGUGCUUUCCGGUCUGAUGAGUGCGUGAGGACGCAACAG, the self-cleavage was found to be 0.288. To ACCGGAUGUGCUUUCCGGUCUGAUGAGUACGUAAGGACGAAACAG belongs 0.816. With ACCGGAUGUGCUUUCCGGUCUGAUGAGUACGUCAGGACGAAACAG, the self-cleavage stood at 0.442. As to ACCGGAUGUGCUUUCCGGUCUGAUGAGUACGUUAGGACGAAACAG, the self-cleavage was found to be 0.674. As to ACCGGAUGUGCUUUCCGGUCUGAUGAGUUCGUCAGGACGAAACAG, the self-cleavage is 1.09.

In the case of ACCGGAUGUGCUUUCCGGUCUGAUGAGUUCGUAAGGACGAAACAG, the self-cleavage amounted to 0.959. In the case of ACCGGAUGUGCUUUCCGGUCUGAUGAGUACGUGAGGACGAAACUG, the self-cleavage was 0.407.

On to ACCGGAUGUGCUUUCCGGUCUGAUGAGUACGUGAGGACGAAACGG, for which the self-cleavage is 0.765. For ACCGGAUGUGCUUUCCGGUCUGAUGAGUACGUGAGUACGAAACAG, the self-cleavage is 0.624.

With ACCGGAUGUGCUUUCCGGUCUGAUGAGUACGUGAGCACGAAACAG, the self-cleavage was determined as 0.718. Take ACCGGAUGUGCUUUCCGGUCUGAUGAGUACGUGAGAACGAAACAG: the self-cleavage came to 0.665. To ACCGGAUGUGCUUUCCGGUCUGAUGAGUGCGGGAGGACGAAACAG belongs 0.553. Take ACCGGAUGUGCUUUCCGGUCUGAUGAGUGCGCGAGGACGAAACAG: the self-cleavage was determined as 0.708.

Take ACCGGAUGUGCUUUCCGGUCUGAUGAGUGCGAGAGGACGAAACAG: the self-cleavage is 0.847. To ACCGGAUGUGCUUUCCGGUCUGAUGAGUUCUUGAGGACGAAACAG belongs 0.783. Take ACCGGAUGUGCUUUCCGGUCUGAUGAGUUCCUGAGGACGAAACAG: the self-cleavage stood at 0.673. The value for ACCGGAUGUGCUUUCCGGUCUGAUGAGUUCAUGAGGACGAAACAG was 0.994.

As for ACCGGAUGUGCUUUCCGGUCUGAUGAGUGCGUUAGGACGAAACAG, the self-cleavage stood at 0.664. ACCGGAUGUGCUUUCCGGUCUGAUGAGUGCGUAAGGACGAAACAG: the self-cleavage was 0.788.

ACCGGAUGUGCUUUCCGGUCUGAUGAGUGCGUCAGGACGAAACAG: the self-cleavage amounted to 0.654.

Consider ACCGGAUGUGCUUUCCGGUCUGAUGAGUGAGUGAGGACGAAACAG, for which the self-cleavage is 0.432. With ACCGGAUGUGCUUUCCGGUCUGAUGAGUGUGUGAGGACGAAACAG, the self-cleavage turned out to be 0.693. To ACCGGAUGUGCUUUCCGGUCUGAUGAGUGGGUGAGGACGAAACAG belongs 0.476. Take ACCGGAUGUGCUUUCCGGUCUGAUGAGUUCGUGUGGACGAAACAG: the self-cleavage came to 0.603. The value for ACCGGAUGUGCUUUCCGGUCUGAUGAGUUCGUGCGGACGAAACAG was 0.723.

As to ACCGGAUGUGCUUUCCGGUCUGAUGAGUUCGUGGGGACGAAACAG, the self-cleavage came to 0.657. In the case of ACCGGAUGUGCUUUCCGGUCUGAUGAGUACGUGAUGACGAAACAG, the self-cleavage amounted to 0.727. The value for ACCGGAUGUGCUUUCCGGUCUGAUGAGUACGUGACGACGAAACAG was 0.526; that for ACCGGAUGUGCUUUCCGGUCUGAUGAGUACGUGAAGACGAAACAG was 0.618.
